Source: the supplement of paper PMC10567573

B1: TRIB1 (parent)
chain: EIGTSDQIVPEYQEDSDISSFFC
B2: BCL2L13 (parent)
chain: MASSSTVPLGFHYETKYVVLSYLG

Variants of: B1
Assay: protein stability index of a GFP-peptide fusion (GPS, HEK-293T) (PSI 1-6); higher = more stable
Details: c terminus: native
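Note: lentivirally expressed fusions sorted by FACS into six bins by GFP to DsRed ratio, PSI derived from sequencing read proportions per bin multiplied by bin number.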

Protein stability index of substitutions, site by site:
I2: Q 2.73, W 2.06, H 3.45, V 3.35, T 2.75, P 4.12, M 3.15, E 3.64, A 2.86, L 3.06, S 2.94, C 2.57, Y 2.81, G 3.58, D 4.01, F 2.59, N 2.74, R 2.59, K 2.9
S5: A 2.81, H 3.06, I 2.95, C 2.72, D 2.97, E 2.77, F 2.31, G 3.2
E1: P 3.11, C 2.38, S 2.42, H 1.97, K 1.98, A 2.7, W 2.46, L 2.21, T 2.97, R 2.77, N 2.32, Y 2.11, D 2.57, Q 2.57, I 1.9, V 2.74, F 2.15, M 2.41, G 2.58
G3: A 2.64, H 2.63, Q 2.7, D 2.55, R 2.31, P 2.97, E 2.97, F 2.32, K 2.65, S 2.57, L 2.29, V 2.78, W 2.18, N 2.81, I 2.42, T 3.01, M 2.83, Y 2.38, C 2.38
T4: M 2.67, Y 3.1, H 2.55, W 2.73, C 2.33, V 2.67, F 3.18, I 2.62, R 2.88, A 3.23, N 2.39, L 2.77, D 2.32, Q 2.25, S 2.87, E 2.86, G 3.12, P 3.22, K 3.25

Variants of: B2
Assay: as above
Details: c terminus: a fixed tail appended

Protein stability index, by site and new letter:
G24: S 1.97, H 2.42, P 2.71, Q 2.62, L 2.98, I 1.75, F 3.97, C 2.21, A 2.8, N 2.1, W 3.89, R 2.06, K 1.45, V 3.35, E 2.05, Y 1.89, D 2.38, T 2.13, M 1.84
L23: P 1.71, N 2.18, Y 2.46, C 2.09, W 2.76, V 1.93, K 2.3, G 1.71, I 2.11, T 1.44, H 2.59, Q 1.48, E 1.65, R 2.21, M 3.69, D 1.63, F 2.12, S 2.34
S21: E 1.24, W 3.36, L 3.41, R 3.78, A 3.51, I 2.36, G 1.62, Q 3.52, F 3.84, Y 2.51, C 3.12, K 1.45, T 2.72, D 2.24, H 2.27, N 2.4, P 2.35
Y22: E 1.85, W 2.89, S 3.81, K 2.37, D 2.4, C 2.8, R 1.69, Q 3.03, G 2.51, H 3, P 1.47, N 1.63, L 3.28, V 1.89, A 1.89, I 2.02, M 2.7, T 2.81, F 2.49
L20: Q 2.19, R 1.48, P 1.7, S 1.69, Y 2.88, N 1.65, M 2.37, T 2.17, W 2.22, V 2.82
